Experimental data as given in article PMC8397269 (Science Advances, 2021).

T1: His-lamin B1, full length (human, UniProt P20700 1-586)
T1 sequence (looked up): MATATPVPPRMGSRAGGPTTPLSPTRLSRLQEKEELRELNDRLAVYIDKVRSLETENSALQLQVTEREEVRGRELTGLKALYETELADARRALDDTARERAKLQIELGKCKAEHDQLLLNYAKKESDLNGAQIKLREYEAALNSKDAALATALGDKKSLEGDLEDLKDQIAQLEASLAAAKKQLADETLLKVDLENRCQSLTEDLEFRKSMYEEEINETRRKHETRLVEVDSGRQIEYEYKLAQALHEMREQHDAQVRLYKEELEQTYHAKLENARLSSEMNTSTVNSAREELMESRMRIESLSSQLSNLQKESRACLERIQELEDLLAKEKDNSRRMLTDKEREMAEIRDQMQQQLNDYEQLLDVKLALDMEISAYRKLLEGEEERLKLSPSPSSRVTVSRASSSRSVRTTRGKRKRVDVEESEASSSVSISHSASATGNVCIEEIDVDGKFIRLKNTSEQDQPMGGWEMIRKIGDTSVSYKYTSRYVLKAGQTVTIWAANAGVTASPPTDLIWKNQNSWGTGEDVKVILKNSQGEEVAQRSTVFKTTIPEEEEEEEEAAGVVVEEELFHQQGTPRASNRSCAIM


Columns and labels:
[1] = target: T1, His-lamin B1, full length; assay: pull-down
His-IRIF 53BP1 = His-IRIF 53BP1 (human, UniProt Q12888 1222-1659); assay: pull-down

binding result [1]	binding result (His-IRIF 53BP1)	Binder
binds		GST-53BP1 IRIF (domain or fragment, human, UniProt Q12888 1222-1659, looked up) EEEFDMPQPPHGHVLHRHMRTIREVRTLVTRVITDVYYVDGTEVERKVTEETEEPIVECQECETEVSPSQTGGSSGDLGDISSFSSKASSLHRTSSGTSLSAMHSSGSSGKGAGPLRGKTSGTEPADFALPSSRGGPGKLSPRKGVSQTGTPVCEEDGDAGLGIRQGGKAPVTPRGRGRRGRPPSRTTGTRETAVPGPLGIEDISPNLSPDDKSFSRVVPRVPDSTRRTDVGAGALRRSDSPEIPFQAAAGPSDGLDASSPGNSFVGLRVVAKWSSNGYFYSGKITRDVGAGKYKLLFDDGYECDVLGKDILLCDPIPLDTEVTALSEDEYFSAGVVKGHRKESGELYYSIEKEGQRKWYKRMAVILSLEQGNRLREQYGLGPYEAVTPLTKAADISLDNLVEGKRKRRSNVSSPATPTASSSSSTTPTRKITESPRA
	binds	GST-Head-Coil1 lamin B1 (domain or fragment, human, UniProt P20700 1-243, looked up) MATATPVPPRMGSRAGGPTTPLSPTRLSRLQEKEELRELNDRLAVYIDKVRSLETENSALQLQVTEREEVRGRELTGLKALYETELADARRALDDTARERAKLQIELGKCKAEHDQLLLNYAKKESDLNGAQIKLREYEAALNSKDAALATALGDKKSLEGDLEDLKDQIAQLEASLAAAKKQLADETLLKVDLENRCQSLTEDLEFRKSMYEEEINETRRKHETRLVEVDSGRQIEYEYKLA
	binds	GST-Nterm lamin B1 (domain or fragment, human, UniProt P20700 1-424, looked up) MATATPVPPRMGSRAGGPTTPLSPTRLSRLQEKEELRELNDRLAVYIDKVRSLETENSALQLQVTEREEVRGRELTGLKALYETELADARRALDDTARERAKLQIELGKCKAEHDQLLLNYAKKESDLNGAQIKLREYEAALNSKDAALATALGDKKSLEGDLEDLKDQIAQLEASLAAAKKQLADETLLKVDLENRCQSLTEDLEFRKSMYEEEINETRRKHETRLVEVDSGRQIEYEYKLAQALHEMREQHDAQVRLYKEELEQTYHAKLENARLSSEMNTSTVNSAREELMESRMRIESLSSQLSNLQKESRACLERIQELEDLLAKEKDNSRRMLTDKEREMAEIRDQMQQQLNDYEQLLDVKLALDMEISAYRKLLEGEEERLKLSPSPSSRVTVSRASSSRSVRTTRGKRKRVDVEES
